Experimental data published in paper PMC546169.
Positions count from the first letter of the chain named. Like-named read-outs stand apart in the source and are kept apart here.

T1: Sac7d M29F (Sulfolobus acidocaldarius, UniProt P13123 1-66, M29F)
T1 sequence: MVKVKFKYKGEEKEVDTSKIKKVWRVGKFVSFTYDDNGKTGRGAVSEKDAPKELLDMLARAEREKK

T2: Sac7d V26A/M29A (Sulfolobus acidocaldarius, UniProt P13123 1-66, V26A;M29A)
T2 sequence: T1 sequence with V26A, F29A

T3: Sac7d V26A (Sulfolobus acidocaldarius, UniProt P13123 1-66, V26A)
T3 sequence: T1 sequence with V26A, F29M

T4: Sac7d M29A (Sulfolobus acidocaldarius, UniProt P13123 1-66, M29A)
T4 sequence: T1 sequence with F29A

T5: Sac7d V26F/M29F (Sulfolobus acidocaldarius, UniProt P13123 1-66, V26F;M29F)
T5 sequence: T1 sequence with V26F

B1: GCGAUbrCGC duplex (dsDNA)
DNA 1: GCGAUCGC
DNA 2: GCGAUCGC
modifications: DNA with bromo-dU at position 5 of each strand
B2: GTAATTAC duplex (dsDNA)
DNA 1: GTAATTAC
DNA 2: GTAATTAC
B3: GCGATCGC duplex (dsDNA)
DNA 1: GCGATCGC
DNA 2: GCGATCGC
B4: GCGATiCGC duplex (dsDNA)
DNA 1: GCGAUCGC
DNA 2: GCGAUCGC
modifications: DNA with iodo derivative at position 5 (printed Ti; presumably iodo-dU)

Columns and labels:
Assay in all cases: X-ray crystallography
[1] = target: T1, Sac7d M29F
[2] = target: T2, Sac7d V26A/M29A
[3] = target: T3, Sac7d V26A
[4] = target: T4, Sac7d M29A
[5] = target: T2, Sac7d V26A/M29A; remark: listed apart in the source
[6] = target: T5, Sac7d V26F/M29F
[7] = target: T1, Sac7d M29F; remark: listed apart in the source
[8] = target: T2, Sac7d V26A/M29A; remark: listed apart in the source

Row | Binder | binding result [1] | binding result [3] | binding result [4] | also measured
1 | B1 | binds |  |  | binding result [2]: binds
2 | B2 | binds | binds | binds | 
3 | B3 |  | binds | binds | binding result [5]: binds; binding result [6]: binds; binding result [7]: binds
4 | B4 |  |  |  | binding result [8]: binds
